Data: paper PMC10531723

Molecular target: PrP-CFP (mouse PrP(23-231) fused to CFP) (mouse) (UniProt P04925)
Test: FRET or BRET

## PrP-YFP (mouse PrP(23-231) fused to YFP) (from UniProt P04925 23-231) (domain or fragment)
  FRET efficiency: 31%
